The target in experiment [1] is platelet-derived growth factor receptor β on rat synovium-derived mesenchymal stem cells (rat) (UniProt Q05030). Briefly: cell-based or functional assay.
The target in experiment [2] is platelet-derived growth factor receptor β on human synovium-derived stem cells (human) (UniProt P09619). Kind of experiment: flow cytometry staining of human synovium-derived stem cells, first lot listed (ST1414). A general note: A flow cytometer gives signals particle by particle.
Chain of UniProt P09619 (P09619 33-1106): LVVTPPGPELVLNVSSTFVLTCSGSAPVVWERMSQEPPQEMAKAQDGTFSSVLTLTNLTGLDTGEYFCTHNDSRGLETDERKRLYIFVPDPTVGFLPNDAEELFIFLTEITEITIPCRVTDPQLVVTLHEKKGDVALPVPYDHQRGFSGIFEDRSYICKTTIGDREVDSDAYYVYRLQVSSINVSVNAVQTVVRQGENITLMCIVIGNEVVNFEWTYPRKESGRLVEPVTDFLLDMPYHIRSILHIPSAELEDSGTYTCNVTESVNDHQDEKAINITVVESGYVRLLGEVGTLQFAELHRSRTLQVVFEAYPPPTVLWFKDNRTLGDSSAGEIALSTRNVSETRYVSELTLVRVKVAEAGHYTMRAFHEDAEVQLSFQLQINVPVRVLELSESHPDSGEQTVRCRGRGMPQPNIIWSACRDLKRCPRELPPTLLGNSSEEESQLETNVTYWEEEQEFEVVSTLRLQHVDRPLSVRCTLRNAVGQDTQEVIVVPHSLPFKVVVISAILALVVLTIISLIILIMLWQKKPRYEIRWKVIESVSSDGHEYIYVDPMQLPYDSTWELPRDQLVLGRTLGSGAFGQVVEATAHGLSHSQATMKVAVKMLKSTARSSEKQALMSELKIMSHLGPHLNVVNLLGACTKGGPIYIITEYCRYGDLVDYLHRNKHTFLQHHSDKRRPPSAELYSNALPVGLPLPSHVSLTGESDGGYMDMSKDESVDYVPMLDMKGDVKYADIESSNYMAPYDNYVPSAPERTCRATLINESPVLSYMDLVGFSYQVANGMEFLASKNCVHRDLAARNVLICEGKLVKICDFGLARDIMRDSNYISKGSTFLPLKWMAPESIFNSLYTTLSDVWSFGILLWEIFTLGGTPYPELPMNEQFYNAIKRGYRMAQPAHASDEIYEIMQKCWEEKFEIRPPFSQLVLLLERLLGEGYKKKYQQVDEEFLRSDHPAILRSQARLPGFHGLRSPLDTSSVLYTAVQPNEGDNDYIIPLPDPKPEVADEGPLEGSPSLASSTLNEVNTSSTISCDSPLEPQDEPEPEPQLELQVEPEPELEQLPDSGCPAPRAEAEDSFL
The target is the same in experiment [3]. Kind of experiment: flow cytometry staining of human synovium-derived stem cells, third lot listed (ST1434).
Experiment [4] has the same target. Kind of experiment: flow cytometry staining of human synovium-derived stem cells, fourth lot listed (ST1462).
The target is the same in experiment [5]. Briefly: flow cytometry staining of human synovium-derived stem cells, second lot listed (ST1420).
Experiment [6] deals with platelet-derived growth factor receptor β on rat synovium-derived mesenchymal stem cells (rat) (UniProt Q05030). Briefly: flow cytometry staining of rat synovium-derived MSC with FITC anti-goat secondary, TrypLE detachment 5 minutes.
Experiment [7] has the same target. Briefly: flow cytometry staining of rat synovium-derived MSC with FITC anti-goat secondary, TrypLE detachment 30 minutes.
The target is the same in experiment [8]. Kind of experiment: flow cytometry staining of rat synovium-derived MSC with FITC anti-goat secondary, TrypLE detachment 60 minutes.
The target is the same in experiment [9]. Kind of experiment: flow cytometry staining of rat synovium-derived MSC with FITC anti-goat secondary, TrypLE detachment 120 minutes.
Experiment [10] has as its target integrin β1 on rat synovium-derived mesenchymal stem cells (rat) (UniProt P49134). Kind of experiment: flow cytometry staining of rat synovium-derived MSC, TrypLE detachment 5 minutes.
Chain of UniProt P49134 (P49134 21-798): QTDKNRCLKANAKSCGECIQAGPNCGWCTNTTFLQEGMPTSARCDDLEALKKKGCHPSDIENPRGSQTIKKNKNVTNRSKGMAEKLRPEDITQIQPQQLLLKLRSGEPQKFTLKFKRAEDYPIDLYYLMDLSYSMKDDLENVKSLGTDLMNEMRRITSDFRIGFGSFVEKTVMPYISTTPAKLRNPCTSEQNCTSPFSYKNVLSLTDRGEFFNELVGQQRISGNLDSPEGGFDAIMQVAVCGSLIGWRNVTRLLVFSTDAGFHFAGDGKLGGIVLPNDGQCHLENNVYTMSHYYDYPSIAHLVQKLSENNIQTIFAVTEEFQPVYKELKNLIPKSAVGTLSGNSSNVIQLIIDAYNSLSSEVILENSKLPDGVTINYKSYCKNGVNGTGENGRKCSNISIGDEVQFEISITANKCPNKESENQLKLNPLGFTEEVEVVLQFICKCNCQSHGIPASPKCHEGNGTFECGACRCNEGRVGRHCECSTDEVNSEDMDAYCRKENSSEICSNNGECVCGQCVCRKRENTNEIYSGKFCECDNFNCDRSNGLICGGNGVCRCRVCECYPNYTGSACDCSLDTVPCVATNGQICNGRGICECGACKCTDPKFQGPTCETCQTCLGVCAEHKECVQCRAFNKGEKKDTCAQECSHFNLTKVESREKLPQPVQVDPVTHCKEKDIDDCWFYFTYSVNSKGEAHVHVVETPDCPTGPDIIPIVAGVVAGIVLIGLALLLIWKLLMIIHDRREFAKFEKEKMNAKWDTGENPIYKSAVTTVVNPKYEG
For experiment [11] the target is unchanged. Briefly: flow cytometry staining of rat synovium-derived MSC, TrypLE detachment 30 minutes.
Experiment [12] has the same target. Kind of experiment: flow cytometry staining of rat synovium-derived MSC, TrypLE detachment 60 minutes.
Experiment [13] has the same target. Kind of experiment: flow cytometry staining of rat synovium-derived MSC, TrypLE detachment 120 minutes.
The target is the same in experiment [14]. Kind of experiment: flow cytometry staining of rat synovium-derived MSC cultured 8 days, TrypLE detachment 120 minutes.
For experiment [15] the target is unchanged. Kind of experiment: flow cytometry staining of rat synovium-derived MSC cultured 21 days, TrypLE detachment 120 minutes.
Experiment [16] shares this target. Briefly: flow cytometry staining of rat synovium-derived MSC cultured 28 days, TrypLE detachment 120 minutes.
For experiment [17], the target named is integrin β1 on human synovium-derived stem cells (human) (UniProt P05556). Briefly: flow cytometry staining of human synovium-derived stem cells, first lot listed (ST1414).
Chain of UniProt P05556 (P05556 21-798): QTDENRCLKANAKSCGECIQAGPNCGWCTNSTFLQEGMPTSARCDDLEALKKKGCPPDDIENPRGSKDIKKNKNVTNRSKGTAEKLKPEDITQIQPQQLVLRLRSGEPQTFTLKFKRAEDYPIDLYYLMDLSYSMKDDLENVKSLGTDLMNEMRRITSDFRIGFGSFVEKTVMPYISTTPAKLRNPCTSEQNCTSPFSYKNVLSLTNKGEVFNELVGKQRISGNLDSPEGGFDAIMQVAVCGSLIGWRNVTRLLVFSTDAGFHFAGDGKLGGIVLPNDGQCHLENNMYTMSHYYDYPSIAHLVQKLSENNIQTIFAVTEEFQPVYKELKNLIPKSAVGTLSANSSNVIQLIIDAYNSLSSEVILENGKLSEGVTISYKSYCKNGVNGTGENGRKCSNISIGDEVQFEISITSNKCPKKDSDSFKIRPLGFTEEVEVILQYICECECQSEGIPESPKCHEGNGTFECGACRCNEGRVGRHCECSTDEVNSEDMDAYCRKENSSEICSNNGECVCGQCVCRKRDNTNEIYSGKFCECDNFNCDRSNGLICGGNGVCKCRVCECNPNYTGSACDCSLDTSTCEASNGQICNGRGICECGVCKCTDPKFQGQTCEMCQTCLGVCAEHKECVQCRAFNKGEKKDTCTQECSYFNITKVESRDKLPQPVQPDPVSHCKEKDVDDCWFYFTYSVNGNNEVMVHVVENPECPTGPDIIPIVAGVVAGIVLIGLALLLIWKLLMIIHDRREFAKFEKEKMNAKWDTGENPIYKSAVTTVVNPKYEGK
Experiment [18] shares this target. Briefly: flow cytometry staining of human synovium-derived stem cells, third lot listed (ST1434).
The target is the same in experiment [19]. Briefly: flow cytometry staining of human synovium-derived stem cells, fourth lot listed (ST1462).
The target is the same in experiment [20]. Kind of experiment: flow cytometry staining of human synovium-derived stem cells, second lot listed (ST1420).

Chain of UniProt Q05030 (Q05030 32-1097): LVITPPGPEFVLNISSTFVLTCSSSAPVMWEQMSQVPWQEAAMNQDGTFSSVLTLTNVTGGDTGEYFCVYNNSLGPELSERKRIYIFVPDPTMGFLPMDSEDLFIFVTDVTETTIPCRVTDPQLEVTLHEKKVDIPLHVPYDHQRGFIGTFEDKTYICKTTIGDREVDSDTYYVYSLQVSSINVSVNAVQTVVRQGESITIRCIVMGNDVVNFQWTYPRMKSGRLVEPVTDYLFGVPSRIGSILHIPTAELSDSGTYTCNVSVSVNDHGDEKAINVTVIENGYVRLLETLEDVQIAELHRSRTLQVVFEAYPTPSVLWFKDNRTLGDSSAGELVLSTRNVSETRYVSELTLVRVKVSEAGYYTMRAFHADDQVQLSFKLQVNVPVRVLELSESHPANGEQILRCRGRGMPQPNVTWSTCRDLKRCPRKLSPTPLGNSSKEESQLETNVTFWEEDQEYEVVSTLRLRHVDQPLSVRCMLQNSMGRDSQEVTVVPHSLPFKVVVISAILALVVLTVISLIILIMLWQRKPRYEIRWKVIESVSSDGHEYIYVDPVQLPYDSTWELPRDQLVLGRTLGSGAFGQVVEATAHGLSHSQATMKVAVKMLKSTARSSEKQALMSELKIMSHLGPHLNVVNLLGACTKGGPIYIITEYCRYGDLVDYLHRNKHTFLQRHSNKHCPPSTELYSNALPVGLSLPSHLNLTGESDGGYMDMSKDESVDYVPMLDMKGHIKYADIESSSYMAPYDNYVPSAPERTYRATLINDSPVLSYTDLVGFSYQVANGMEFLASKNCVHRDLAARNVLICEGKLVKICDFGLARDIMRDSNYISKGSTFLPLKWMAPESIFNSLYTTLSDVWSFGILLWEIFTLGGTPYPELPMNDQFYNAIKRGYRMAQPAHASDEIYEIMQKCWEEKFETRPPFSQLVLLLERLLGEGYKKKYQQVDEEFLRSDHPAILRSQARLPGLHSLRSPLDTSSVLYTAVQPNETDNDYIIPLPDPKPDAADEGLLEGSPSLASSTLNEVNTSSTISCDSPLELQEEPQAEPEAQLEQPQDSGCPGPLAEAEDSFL

In [1], “Anti-PDGF Receptor β Human Goat-Poly (R & D Systems Cat. No. AF385) (antibody)” returned an ATP concentration (cell proliferation with rat PDGF-BB 4 ng/mL, Cell Titer Glo, 6th day of culture), 10 µg/mL PDGFRb-rSMSC of 0.62 µmol/L. In addition, in [1], the ATP concentration (cell proliferation with rat PDGF-BB 4 ng/mL, Cell Titer Glo, 6th day of culture), 20 µg/mL PDGFRb-rSMSC worked out at 0.65 µmol/L. The substance further yielded an ATP concentration (cell proliferation with rat PDGF-BB 4 ng/mL, Cell Titer Glo, 6th day of culture), 40 µg/mL PDGFRb-rSMSC in [1] of 0.24 µmol/L. Further, in experiment [1], the ATP concentration (cell proliferation, Cell Titer Glo, 6th day of culture), 40 µg/mL PDGFRb-rSMSC turned out to be 3.78 µmol/L. In experiment [1], the ATP concentration (cell proliferation, Cell Titer Glo, 6th day of culture), 120 µg/mL PDGFRb-rSMSC amounted to 4.12 µmol/L. In addition, the surface antigen positive rate in experiment [2] is 92.2%; in experiment [3], 95.2%; in [4] it was 85.9%; in experiment [5], 90.7%. Also, the Expression rate (percent positive cells) in experiment [6] is 91.6%; in experiment [7], 76.9%; in experiment [8], 63.3%; in experiment [9], 32.8%.
Take “PE anti-mouse/rat integrin β1 Antibody (Biolegend Cat. No. 102207)”: the Expression rate (percent positive cells) in experiment [10] was determined as 98.7%; in experiment [11], 99.7%; in [12], 96.1%; in experiment [13], 97.8%; in [14], 97.8%; in [15] it was 62.1%. For the same substance, the Expression rate (percent positive cells) in [16] came to 56.1%.
Turning to “APC Mouse Anti-Human CD29, Cat: 559883 (antibody)”, the surface antigen positive rate came out at 99.4% in [17], 99.6% in experiment [18], 99.5% in experiment [19] and 99.6% in experiment [20].

(Values after patent US20240299459A1.)
